According to patent US20040121415A1 (published 2004):

How the values were obtained:
[1] = target: Carcinoembryonic antigen (CEA) (UniProt P06731); assay: SPR (Biacore 2000), oxidised CEA immobilised on CM5 chip, Fab′ injected
[2] = target: Carcinoembryonic antigen (CEA) (UniProt P06731); assay: SPR (Biacore 2000), oxidised CEA immobilised; relative to unmodified hA5B7 Fab′
[3] = target: T1, human TNF (human, UniProt P01375 77-233); assay: BIAcore as in Example 3: sample captured by anti-Fab′ antibody, human TNF passed over
T1 construct: Soluble human TNF, used in the L929 assay and passed over captured antibody in BIAcore; also called human TNFα
T1 sequence (P01375 77-233 limits assumed): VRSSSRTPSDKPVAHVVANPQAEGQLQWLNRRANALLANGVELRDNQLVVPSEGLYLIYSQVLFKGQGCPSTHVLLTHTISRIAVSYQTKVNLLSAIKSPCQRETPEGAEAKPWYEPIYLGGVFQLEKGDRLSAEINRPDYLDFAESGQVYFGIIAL

Chain of Carcinoembryonic antigen (CEA) (P06731 35-685 limits assumed): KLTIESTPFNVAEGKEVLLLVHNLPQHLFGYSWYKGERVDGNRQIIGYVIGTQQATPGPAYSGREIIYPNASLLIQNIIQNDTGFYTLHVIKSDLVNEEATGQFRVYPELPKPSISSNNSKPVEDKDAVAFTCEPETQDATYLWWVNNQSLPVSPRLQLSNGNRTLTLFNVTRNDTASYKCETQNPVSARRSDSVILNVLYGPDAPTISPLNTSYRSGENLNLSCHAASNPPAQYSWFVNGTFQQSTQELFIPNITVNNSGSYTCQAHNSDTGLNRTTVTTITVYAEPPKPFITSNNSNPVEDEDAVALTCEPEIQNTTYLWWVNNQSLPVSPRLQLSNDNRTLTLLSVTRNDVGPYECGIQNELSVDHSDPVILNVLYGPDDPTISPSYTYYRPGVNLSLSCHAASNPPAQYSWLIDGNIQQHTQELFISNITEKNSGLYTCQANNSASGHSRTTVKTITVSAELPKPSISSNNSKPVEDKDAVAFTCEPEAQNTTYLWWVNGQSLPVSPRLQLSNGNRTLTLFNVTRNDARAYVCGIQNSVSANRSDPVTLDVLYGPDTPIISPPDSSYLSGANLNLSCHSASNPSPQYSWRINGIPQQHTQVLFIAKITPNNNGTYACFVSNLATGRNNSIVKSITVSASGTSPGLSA

hA5B7 Fab′ (unmodified)
Kd [1]: 1.87 nM
koff [1]: 0.000161 s⁻¹
kon [1]: 86000 M⁻¹ s⁻¹
Immunoreactivity [2]: 100%

B1: hTNF40 IgG (antibody, V domains shown)
VH: QIQLVQSGPELKKPGETVKISCKASGYVFTDYGMNWVKQAPGKAFKWMGWINTYIGEPIYVDDFKGRFAFSLETSASTAFLQINNLKNEDTATYFCARGYRSYAMDYWGQGTSVTVSS
VL: DIVMTQSQKFMSTSVGDRVSVTCKATQNVGTNVAWYQQKPGQSPKALIYSASFLYSGVPYRFTGSGSGTDFTLTISTVQSEDLAEYFCQQYNIYPLTFGAGTKLELKR
Kd [3]: 0.156 nM
